Laboratory results from publication PMC3343272, “Asymmetric Mode of Ca^2+-S100A4 Interaction with Nonmuscle Myosin IIA Generates Nanomolar Affinity Required for Filament Remodeling” (Structure(London, England:1993), 2012).
“And” between values parts separate entries of the source, which are not always exact repeats. Equal values may be shown once. Read-outs that look alike come from different tables or passages of the source. One block for each binder: values may come before it.

B3: S100A4 (natural protein)
chain: not shown
notes: S100A4; the NMR analysis speaks of residues 1-101; The His-tag is named only for the SPR experiment (two His-tags in the dimer); also called WT S100A4; u-S100A4; source: expressed and purified as described previously (Badyal et al., 2011)
B10: M200 fragment of nonmuscle myosin IIA heavy chain (Q1761-E1960) (domain or fragment, UniProt P35579 1761-1960, looked up)
chain: QINTDLNLERSHAQKNENARQQLERQNKELKVKLQEMEGTVKSKYKASITALEAKIAQLEEQLDNETKERQAACKQVRRTEKKLKDVLLQVDDERRNAEQYKDQADKASTRLKQLKRQLEEAEEEAQRANASRRKLQRELEDATETADAMNREVSSLKNKLRRGDLPFVVPRRMARKGAGDGSDEEVDGKADGAEAKPAE
notes: nonmuscle myosin IIA heavy chain, residues Q1761-E1960; forms a coiled coil and filaments; source: expressed and purified as described previously (Badyal et al., 2011)

Experiments:
[1] = molecular target: the molecule itself; assay: SEC-MALLS; Superdex 75 10/300, 20 mM MES pH 6.1, 150 mM NaCl, 0.5 mM DTT, 0.7 ml/min; 75 µM M70, 150 µM M111, 50 µM S100A4, 50 µM S100A4 V77D, 50 µM S100A4 C81D loaded
[2] = molecular target: B10; assay: competitive turbidity assay; 12.5 µM M200 diluted into 100 mM NaCl, 20 mM Hepes, 1 mM Mg2+, 100 µM Ca2+; turbidity at 300 nm; 25 µM S100A4 (monomer) added at 800 s, 10 µM M39 added at 1450 s; settings: both partners purified
[3] = molecular target: the molecule itself; assay: SEC-MALLS; Superdex 75 10/300, 20 mM MES pH 6.1, 150 mM NaCl, 0.5 mM DTT, 0.7 ml/min; 75 µM M70, 150 µM M111, 50 µM S100A4, 50 µM S100A4 V77D, 50 µM S100A4 C81D loaded; remark: listed apart in the source
[4] = molecular target: T1, S100A4, wild type, Ca^2+-bound dimer (recombinant) (UniProt P26447 1-101); assay: SEC-MALS; SEC-MALLS with refractive index and absorbance detection; S100A4 and myosin fragment mixed (1:1 molar ratio for M111); settings: both partners purified
T1 construct: also called WT; u-S100A4; source: recombinant, unlabeled and 13C,15N-labeled; purified

S100A4 [5] = molecular target: B3; assay: stopped-flow Quin-2 fluorescence (Ca2+ dissociation); M39 premixed with 13 µM S100A4 (monomer concentration) and 50 µM Ca2+, mixed with 100 µM Quin-2; 20 mM NaCl, 10 mM Hepes, 1 mM MgCl2, pH 7.5, 20 °C; amplitude of the fast phase against [M39]; mutants with up to 50 µM M39; settings: both partners purified
S100A4 [6] = molecular target: B3; assay: kinetic scheme (estimates or values required for thermodynamic balance); S100A4 dimer with a single Ca2+ bound; values in blue in the scheme, not experimental measurements; settings: both partners purified
S100A4 [7] = molecular target: B3; assay: kinetic scheme (estimates or values required for thermodynamic balance); apo S100A4 dimer (no Ca2+ bound); values in blue in the scheme, not experimental measurements; settings: both partners purified
S100A4 [8] = molecular target: B3; assay: SPR; Biacore X100, S100A4 (0.5 µM) coupled by its His-tags to a Ni-NTA chip; M39 at 1, 3, 9 and 27 nM; 20 mM MES pH 6.1, 150 mM NaCl, 5 mM CaCl2, 0.5 mM TCEP, 50 µM EDTA, 0.005% Surfactant P20; fit to 1:1 Langmuir model; settings: both partners purified
S100A4 [9] = molecular target: B3; assay: competitive turbidity assay; 12.5 µM M200 diluted into 100 mM NaCl, 20 mM Hepes, 1 mM Mg2+, 100 µM Ca2+; turbidity at 300 nm; 25 µM S100A4 (monomer) added at 800 s, 10 µM M39 added at 1450 s; settings: both partners purified
[10] = molecular target: T1, S100A4, wild type, Ca^2+-bound dimer …; assay: SPR; sensorgrams at nanomolar concentrations of M39; simultaneous fit to a single site-binding model; n = 3; settings: both partners purified
[11] = molecular target: T1, S100A4, wild type, Ca^2+-bound dimer …; assay: kinetic assays; kinetic assays similar to those of Badyal et al., 2011 (Figures S1I–S1L); settings: both partners purified
[12] = molecular target: T2, S100A4 V77D mutant (studied in vitro) (UniProt P26447 1-101, V77D); assay: NMR titration; S100A4 V77D and C81D mutants (Figures S3C and S3D); the myosin fragment is not given; settings: both partners purified
T2 construct: Parent: m1

[13] = molecular target: T3, S100A4 C81D mutant (studied in vitro) (UniProt P26447 1-101, C81D); assay: as above; settings: both partners purified
T3 construct: Parent: m1

[14] = molecular target: T1, S100A4, wild type, Ca^2+-bound dimer …; assay: ITC; 10 μM S100A4 in the cell, 75 μM M39 in the syringe; single site-binding model; the paper calls the KD an upper limit; settings: both partners purified
[15] = molecular target: T1, S100A4, wild type, Ca^2+-bound dimer …; assay: ITC + SPR + other: kinetic assays; limit that the paper gives as compatible with all its methods; settings: both partners purified
[16] = molecular target: the molecule itself; assay: competitive turbidity assay; 12.5 µM M200 diluted into 100 mM NaCl, 20 mM Hepes, 1 mM Mg2+, 100 µM Ca2+; turbidity at 300 nm; 25 µM S100A4 (monomer) added at 800 s, 10 µM M39 added at 1450 s

B1: S100A4 C81D (natural protein)
chain: not shown
notes: source: expressed and purified as described previously (Badyal et al., 2011)
stoichiometry N [1]: 2

B2: S100A4 V77D (natural protein)
chain: MACPLEKALDVMVSTFHKYSGKEGDKFKLNKSELKELLTRELPSFLGKRTDEAAFQKLMSNLDSNRDNEVDFQEYCDFLSCIAMMCNEFFEGFPDKQPRKK
notes: as for B1
stoichiometry N [1]: 2

Binder: B3
binding result [2]: binds

B4: M111 fragment of nonmuscle myosin IIA heavy chain (residues Q1850-E1960) (domain or fragment, UniProt P35579 1850-1960, looked up)
chain: QVDDERRNAEQYKDQADKASTRLKQLKRQLEEAEEEAQRANASRRKLQRELEDATETADAMNREVSSLKNKLRRGDLPFVVPRRMARKGAGDGSDEEVDGKADGAEAKPAE
notes: nonmuscle myosin IIA heavy chain, residues Q1850-E1960; source: expressed and purified as described previously (Badyal et al., 2011)
stoichiometry N [3]: 2

stoichiometry N [4]: 0.5 myosin fragment per S100A4 subunit
B5: M111, nonmuscle myosin IIA heavy chain fragment (residues Q1850–E1960) (domain or fragment, UniProt P35579 1850-1960, looked up)
chain: QVDDERRNAEQYKDQADKASTRLKQLKRQLEEAEEEAQRANASRRKLQRELEDATETADAMNREVSSLKNKLRRGDLPFVVPRRMARKGAGDGSDEEVDGKADGAEAKPAE
notes: nonmuscle myosin IIA (NMIIA) heavy chain, residues Q1850-E1960

B6: M70 fragment of nonmuscle myosin IIA heavy chain (residues A1868-G1938) (domain or fragment, UniProt P35579 1868-1938, looked up)
chain: ASTRLKQLKRQLEEAEEEAQRANASRRKLQRELEDATETADAMNREVSSLKNKLRRGDLPFVVPRRMARKG
notes: nonmuscle myosin IIA heavy chain, residues A1868-G1938; small print, not read surely; also called u-M70; 15N-M70; source: recombinant; expressed and purified as described previously (Badyal et al., 2011)
stoichiometry N [3]: 2

stoichiometry N [4]: 0.5 myosin fragment per S100A4 subunit
B7: M70, nonmuscle myosin IIA heavy chain fragment (residues A1868–G1938) (domain or fragment, UniProt P35579 1868-1938, looked up)
chain: ASTRLKQLKRQLEEAEEEAQRANASRRKLQRELEDATETADAMNREVSSLKNKLRRGDLPFVVPRRMARKG
notes: nonmuscle myosin IIA (NMIIA) heavy chain, residues A1868-G1938; also called u-M70; 13C,15N-M70; source: recombinant, unlabeled, 15N-labeled and 13C,15N-labeled

Kd (S100A4 [5]): < 0.5 µM
stoichiometry N (S100A4 [5]): 2.6 S100A4 monomers per M39
Kd (S100A4 [6]): 1 µM
Kd (S100A4 [7]): 10000 µM
Kd (S100A4 [8]): 0.0004 µM
Kd (S100A4 [9]): < 0.01 µM
B8: M39 peptide of nonmuscle myosin IIA heavy chain (residues Q1897-A1935) (peptide)
peptide: QRELEDATETADAMNREVSSLKNKLRRGDLPFVVPRRMA
notes: nonmuscle myosin IIA heavy chain (NM-MHC IIA), residues Q1897-A1935; also called u-M39; WT M39; source: synthetic peptide; bought: GL Biochem Ltd (Shanghai, China), purity >95% by HPLC

Kd [10]: 0.00024 ± 7e-05 µM
Kd [11]: ~0.0001 µM
Kd [12]: ~100 µM
Kd [13]: ~100 µM
Kd [14]: 0.0059 µM and 0.004 µM
stoichiometry N [14]: 0.55 ± 0.06 M39/S100A4
Kd [15]: ≤ 0.001 µM
B9: M39, nonmuscle myosin IIA heavy chain peptide (residues Q1897–A1935) (peptide, UniProt P35579 1897-1935, looked up)
peptide: QRELEDATETADAMNREVSSLKNKLRRGDLPFVVPRRMA
notes: nonmuscle myosin IIA (NMIIA) heavy chain, residues Q1897-A1935; Unmodified (no fluorescent label); also called u-M39; source: synthetic peptide

Binder: B10
binding result [16]: binds
